Reference: patent US20090181894A1

Target: GnRH binding sites on neoplastic cells (plasma membranes of the SW-48 colon adenocarcinoma cell line in the binding assay)
Assay: binding of 125I-GnRH to plasma membranes of SW-48 cells, filter assay

non-specific binding: 37%
Substance: 125I-GnRH (from UniProt P01148) (peptide)
